# Test results taken from IntAct's records for PubMed 10487758.
# B1: Protein E6 (Human papillomavirus type 16), P03126 (parent)
# chain: MHQKRTAMFQDPQERPRKLPQLCTELQTTIHDIILECVYCKQQLLRREVYDFAFRDLCIVYRDGNPYAVCDKCLKFYSKISEYRHYCYSLYGTTLEQQYNKPLCDLLIRCINCQKPLCPEEKQRHLDKKQRFHNIRGRWTGRCMSCCRSSRTRRETQL
# Variants of: B1
# Conditions: with ep300_human EP300, Q09472
# ep300_human EP300, Q09472, sequence (Q09472 whole entry): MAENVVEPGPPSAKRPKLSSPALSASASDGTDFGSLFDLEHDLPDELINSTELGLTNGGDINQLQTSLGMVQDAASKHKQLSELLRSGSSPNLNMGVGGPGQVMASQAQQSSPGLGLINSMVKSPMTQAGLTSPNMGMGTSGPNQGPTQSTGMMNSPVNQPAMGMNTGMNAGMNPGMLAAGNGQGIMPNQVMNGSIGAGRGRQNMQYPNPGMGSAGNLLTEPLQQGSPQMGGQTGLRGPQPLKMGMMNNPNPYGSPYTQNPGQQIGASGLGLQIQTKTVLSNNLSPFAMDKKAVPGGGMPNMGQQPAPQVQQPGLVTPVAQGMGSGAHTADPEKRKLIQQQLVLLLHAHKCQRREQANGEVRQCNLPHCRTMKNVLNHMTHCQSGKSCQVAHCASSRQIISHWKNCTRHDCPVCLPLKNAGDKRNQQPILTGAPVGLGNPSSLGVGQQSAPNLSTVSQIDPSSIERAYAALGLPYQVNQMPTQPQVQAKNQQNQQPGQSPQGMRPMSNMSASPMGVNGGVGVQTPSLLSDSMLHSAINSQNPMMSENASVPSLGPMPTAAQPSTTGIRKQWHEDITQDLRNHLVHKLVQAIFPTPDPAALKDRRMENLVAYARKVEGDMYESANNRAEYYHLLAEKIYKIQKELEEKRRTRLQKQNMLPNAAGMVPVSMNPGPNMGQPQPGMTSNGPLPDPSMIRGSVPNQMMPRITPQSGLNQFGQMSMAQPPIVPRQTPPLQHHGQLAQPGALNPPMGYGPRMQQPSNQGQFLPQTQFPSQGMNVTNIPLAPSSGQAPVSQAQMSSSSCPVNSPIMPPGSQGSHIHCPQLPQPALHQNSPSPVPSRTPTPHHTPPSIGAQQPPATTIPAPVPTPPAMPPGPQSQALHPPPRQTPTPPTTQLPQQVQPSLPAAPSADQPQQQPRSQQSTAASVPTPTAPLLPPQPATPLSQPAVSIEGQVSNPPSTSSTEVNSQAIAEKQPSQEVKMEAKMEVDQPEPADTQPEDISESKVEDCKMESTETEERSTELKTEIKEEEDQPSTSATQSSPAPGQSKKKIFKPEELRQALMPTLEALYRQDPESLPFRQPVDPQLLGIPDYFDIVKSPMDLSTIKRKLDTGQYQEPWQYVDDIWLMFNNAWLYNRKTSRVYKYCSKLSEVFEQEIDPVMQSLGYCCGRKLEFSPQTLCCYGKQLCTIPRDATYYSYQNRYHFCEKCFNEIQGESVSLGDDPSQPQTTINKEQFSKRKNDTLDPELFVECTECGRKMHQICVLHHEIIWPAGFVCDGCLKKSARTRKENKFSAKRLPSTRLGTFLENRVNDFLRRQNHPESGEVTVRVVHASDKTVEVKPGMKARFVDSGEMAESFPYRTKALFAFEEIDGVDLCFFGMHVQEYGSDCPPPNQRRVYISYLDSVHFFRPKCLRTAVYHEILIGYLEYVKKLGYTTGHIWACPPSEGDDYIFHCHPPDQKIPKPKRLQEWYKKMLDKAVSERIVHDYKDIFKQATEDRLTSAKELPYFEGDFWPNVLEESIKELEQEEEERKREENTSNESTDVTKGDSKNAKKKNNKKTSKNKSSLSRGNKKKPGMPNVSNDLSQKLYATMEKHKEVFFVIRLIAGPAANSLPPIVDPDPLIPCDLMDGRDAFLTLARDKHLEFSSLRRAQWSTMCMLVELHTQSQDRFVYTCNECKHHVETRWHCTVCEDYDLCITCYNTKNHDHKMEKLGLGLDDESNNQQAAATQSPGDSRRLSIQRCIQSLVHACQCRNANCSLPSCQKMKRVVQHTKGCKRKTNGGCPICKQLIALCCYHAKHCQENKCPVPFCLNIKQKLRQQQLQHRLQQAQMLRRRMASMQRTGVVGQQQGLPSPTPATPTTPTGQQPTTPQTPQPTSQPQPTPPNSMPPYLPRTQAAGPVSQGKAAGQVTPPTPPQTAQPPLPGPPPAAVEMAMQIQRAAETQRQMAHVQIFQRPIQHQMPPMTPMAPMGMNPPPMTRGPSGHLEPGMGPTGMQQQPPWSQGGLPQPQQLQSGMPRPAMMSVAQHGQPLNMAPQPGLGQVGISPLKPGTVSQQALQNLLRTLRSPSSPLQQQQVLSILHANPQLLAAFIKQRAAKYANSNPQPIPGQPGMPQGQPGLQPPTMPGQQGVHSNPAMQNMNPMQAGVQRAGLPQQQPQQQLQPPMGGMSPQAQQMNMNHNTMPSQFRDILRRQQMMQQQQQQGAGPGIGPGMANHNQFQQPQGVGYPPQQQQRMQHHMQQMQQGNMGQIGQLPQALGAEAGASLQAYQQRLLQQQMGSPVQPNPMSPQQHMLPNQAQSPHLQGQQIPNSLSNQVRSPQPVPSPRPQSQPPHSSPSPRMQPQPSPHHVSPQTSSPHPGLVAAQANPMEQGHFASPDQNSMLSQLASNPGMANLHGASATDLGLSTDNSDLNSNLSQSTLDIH
row,Variant,effect of a mutation on the interaction
1,F52Y;F54Y;D56H,disrupting interaction

# Variants of: B1
# Conditions: with ep300_human EP300, Q09472
# Remark: another data set of the same source
row,Variant,effect of a mutation on the interaction
1,F52Y;F54Y;D56H,decreasing interaction
2,C73G;C143G,disrupting interaction
3,R15S;P16A;R17T,decreasing interaction
